In patent US8445635B2, “Modified H2 relaxin for tumor suppression” (Armour Therapeutics Inc., priority 2006, dated 2013):

Key:
LGR7 = target: T1, LGR7 (Homo sapiens, UniProt Q9HBX9); test: Flow cytometry-based relaxin binding assay on 293T-LGR7 cells, competed with bH2; details: unconcentrated CM, WT H2 1 and 4 ng/mL, ΔH2 1 ng/mL, competed with 5 ng bH2
T1 construct: expressed in transfected cells; host or cells: 293T-LGR7 (293T human embryonic kidney cells)
T1 sequence (Q9HBX9 1-757): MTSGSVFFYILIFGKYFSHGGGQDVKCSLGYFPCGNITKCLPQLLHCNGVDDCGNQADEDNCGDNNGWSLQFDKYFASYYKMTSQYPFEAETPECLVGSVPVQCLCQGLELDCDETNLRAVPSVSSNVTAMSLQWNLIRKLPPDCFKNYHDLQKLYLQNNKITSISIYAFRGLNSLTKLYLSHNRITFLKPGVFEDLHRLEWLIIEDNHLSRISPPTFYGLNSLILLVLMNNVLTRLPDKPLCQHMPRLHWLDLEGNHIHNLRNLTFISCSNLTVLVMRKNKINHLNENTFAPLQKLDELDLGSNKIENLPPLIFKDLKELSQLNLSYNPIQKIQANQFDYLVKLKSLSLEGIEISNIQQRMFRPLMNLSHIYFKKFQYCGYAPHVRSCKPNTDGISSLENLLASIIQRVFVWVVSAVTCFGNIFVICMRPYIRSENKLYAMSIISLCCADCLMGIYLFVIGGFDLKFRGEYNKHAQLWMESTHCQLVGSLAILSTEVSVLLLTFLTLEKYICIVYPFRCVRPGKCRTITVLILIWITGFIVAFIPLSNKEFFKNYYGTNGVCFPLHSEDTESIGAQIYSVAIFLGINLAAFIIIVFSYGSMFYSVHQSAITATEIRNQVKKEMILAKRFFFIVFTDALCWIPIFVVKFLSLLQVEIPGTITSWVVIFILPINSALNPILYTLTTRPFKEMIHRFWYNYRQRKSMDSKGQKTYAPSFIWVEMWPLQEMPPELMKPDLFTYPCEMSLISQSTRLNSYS
Protocol: To optimize collection of recombinant ΔH2 peptide for this assay, single-cell clones of LV-infected 293T cell cultures were isolated. Clones were confirmed by flow cytometry measuring eGFP fluorescence and selected based on highest expression. 293T-eGFP#3, 293TΔH2/eGFP#6, 293T-H2/eGFP#3 cell cultures were seeded in 15-cam plates in complete medium overnight, refreshed with Dulbecco's Modified Eagle Medium (DMEM) medium containing 2% FCS after 24 h, and incubated for an additional 48 h. At this point, CM were collected for assays. H2 relaxin levels in unconcentrated CM from 293T-eGFP#3, 293TΔH2/eGFP#6, 293T-H2/eGFP#3 cell cultures were approximated by the H2 ELISA to be 0, 1, and 4 ng/mL (data not shown).
293T-LGR7 cells were collected, washed with PBS supplemented with 1% FCS (PBS-1%), and resuspended at 1.67×10^7 cells/mL. For each sample, 30 μl (0.5×10^6 […]) were added per 5 mL polystyrene round-bottom Falcon tube (Becton Dickinson Labware, Franklin Lakes, N.J., USA). Control samples contained 50 μL of either PBS-1% containing 5 ng of rH2 or 50 μL of PBS-1% alone. […] Samples were incubated for 15 min at RT. […] Cells were washed twice with 500 μL of PBA-1% and analyzed on a FACSCalibur flow cytometer) BDBiosciences, Franklin Lakes, N. J., USA).

[1] = Plasma osmolality of PC3-Luc tumor-bearing mice at week 11; type: in vivo, mouse; details: week 11, P=0.04
Protocol: To determine whether H2 and ΔH2 relaxins secreted from the PC3-Luc tumor xenografts elicited a systemic physiological response, plasma osmolality was measured from the animals at the termination of the study (FIG. 4D). Plasma osmolality readings obtained from PC3-H2/eGFP, PC3-Luc-eGFP and PC3-Luc-ΔH2/eGFP animals averaged 330±4.6 […] and 342±4.6 mmol/L, respectively. […] Overexpression of ΔH2 relaxin in the tumor microenvironment may inhibit endogenous H2 relaxin progrowth signals to tumor cells or tumor-infiltrated ECs.
Six-to-eight week old male NOD/SCID mice (The Jackson Laboratory; Bar Harbour, Me.) wore maintained at the Animal Resource Facility (PMH, Toronto, Canada) under an approved UHN protocol. […] Tumors were measured weekly by calipers and tumor volume approximated (l×w×d), as described previously (Silvertown, J. D., Ng, J., Sato, T., Summerlee, A. J., Medin, J. A. 2006. H2 relaxl; overexpression increases in vivo prostate xenograft tumor growth and angiogenesis. Iift J Cancer. 118:62-73). […] For plasma osmolality readings, approximately 100-200 μL of blood was collected in heparin (heparin sodium, 1000 USP units/mL; Hepalean) and sent for analysis (Animal Health Laboratory, Department of Pathobiology, University of Guelph).

relaxin receptor = details: Bullesbach 1992; cited from earlier work
[2] = target: T2, relaxin receptors on THP-1 cells (Homo sapiens, UniProt Q9HBX9); test: THP-1 cAMP bioassay; details: THP-1 and PC3-Luc cell cultures
T2 sequence (Q9HBX9 1-757): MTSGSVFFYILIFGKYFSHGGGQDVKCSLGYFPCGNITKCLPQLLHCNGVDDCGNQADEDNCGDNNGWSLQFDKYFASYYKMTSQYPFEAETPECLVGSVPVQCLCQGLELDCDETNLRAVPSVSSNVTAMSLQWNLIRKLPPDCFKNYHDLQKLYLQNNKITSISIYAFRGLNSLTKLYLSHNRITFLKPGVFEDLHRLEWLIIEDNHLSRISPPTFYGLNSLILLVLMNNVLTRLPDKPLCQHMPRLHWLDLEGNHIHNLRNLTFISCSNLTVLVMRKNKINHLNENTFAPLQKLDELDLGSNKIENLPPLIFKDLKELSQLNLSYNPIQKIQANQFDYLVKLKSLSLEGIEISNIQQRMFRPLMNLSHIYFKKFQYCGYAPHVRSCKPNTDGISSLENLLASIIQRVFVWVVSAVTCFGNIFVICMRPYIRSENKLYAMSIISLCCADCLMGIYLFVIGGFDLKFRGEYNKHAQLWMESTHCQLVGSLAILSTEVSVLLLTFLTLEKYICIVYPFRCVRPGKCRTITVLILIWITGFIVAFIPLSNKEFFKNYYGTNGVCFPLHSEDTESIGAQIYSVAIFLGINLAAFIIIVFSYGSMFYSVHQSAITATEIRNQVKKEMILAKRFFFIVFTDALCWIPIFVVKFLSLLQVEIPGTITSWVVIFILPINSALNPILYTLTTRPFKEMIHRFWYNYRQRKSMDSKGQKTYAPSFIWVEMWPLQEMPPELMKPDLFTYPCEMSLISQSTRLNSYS
Description: To confirm the biological activity of the H2 and ΔH2 relaxins, the cAMP Biotrak E1A System was employed (Amersham Biosciences) as described before (Parsell, D. A., Mak, J. Y., Amento, E P., Unemori, E. N. 1996. Relaxin binds to and elicits a response from cells of the human monocytic cell line, THP-1. J Biol Chem. 271:27936-41; Silvertown, J. D., Geddes, B. J., Summerlee, A. J. 2003. Adenovirus mediated expression of human prorelaxin promotes the invasive potential of canine mammary cancer cells. Endocrinology. 144:3683-91). For measuring bioactivity from CM, 40 μL from each concentrated CM sample was added to THP-1 cells. For measuring cAMP levels directly from the LV-infected PC3-Luc cells, 1×10^5 cells were seeded in a 96-well plate and equilibrated for 2 h before cAMP was measured as described (Parsell, D. A., Mak, J. Y., Amento, E P., Unemori, E. N. 1996. Relaxin binds to and elicits a response from cells of the human monocytic cell line, THP-1. J Biol Chem. 271:27936-41; Silvertown, J. D., Geddes, B. J., Summerlee, A. J. 2003. Adenovirus-mediated expression of human prorelaxin promotes the invasive potential of canine mammary cancer cells. Endocrinology. 144:3683-91). The THP-1 cAMP assay was also adapted for an H2 relaxin competitive assay. […]

receptor affinity (LGR7): low
Bioactivity by cAMP assays [2]: significantly impaired
B1: ΔH2: H2 relaxin with lysine substitution at B13 and B17 of the receptor binding domain, B20 Ile (protein, UniProt P04090 1-185, looked up, variant R13K R17K)
chain: MPRLFFFHLLGVCLLLNQFSRAVADSWMEEVIKLCGKELVKAQIAICGMSTWSKRSLSQEDAPQTPRPVAEIVPSFINKDTETINMMSEFVANLPQELKLTLSEMQPALPQLQQHVPVLKDSSLLFEEFKKLIRNRQSEAADSSPSELKYLGLDTHSRKKRQLYSALANKCCHVGCTKRSLARFC
modifications: B-chain numbering
plasma osmolality increase compared to wild-type H2-expressing tumor animals [1]: approximately 12 mmol/L
biological activity (relaxin receptor): biologically inactive
lower affinity for receptor binding than wild type H2 relaxin (relaxin receptor): ~2200 fold
